Experimental findings from paper PMC8136771, “The human tRNA-guanine transglycosylase displays promiscuous nucleobase preference but strict tRNA specificity” are described below.

This series has as its target His-hQTRT1 (catalytic subunit of human TGT);StrepII-hQTRT2 (noncatalytic subunit) (human;human, UniProt Q9BXR0;Q9H974 1-403;1-415, |). Put plainly: denaturing EMSA of covalent intermediate; 9-deazaguanine; RBT buffer: 50 mM Tris-HCl pH 7.5, 20 mM NaCl, 5 mM MgCl2, 2 mM DTT, 37 C, 1-1.5 h, with 9-deazaguanine (25-50 uM); capture-release with poly(U) and ArgSL competitors, urea and guanidine washes. Conditions: protein: recombinant;recombinant; tags: N-terminal His;N-terminal StrepII-SUMO; copies: 1;1; hairpin.

Chain of His-hQTRT1 (catalytic subunit of human TGT);StrepII-hQTRT2 (noncatalytic subunit) (Q9BXR0 whole entry, chain 1 of 2): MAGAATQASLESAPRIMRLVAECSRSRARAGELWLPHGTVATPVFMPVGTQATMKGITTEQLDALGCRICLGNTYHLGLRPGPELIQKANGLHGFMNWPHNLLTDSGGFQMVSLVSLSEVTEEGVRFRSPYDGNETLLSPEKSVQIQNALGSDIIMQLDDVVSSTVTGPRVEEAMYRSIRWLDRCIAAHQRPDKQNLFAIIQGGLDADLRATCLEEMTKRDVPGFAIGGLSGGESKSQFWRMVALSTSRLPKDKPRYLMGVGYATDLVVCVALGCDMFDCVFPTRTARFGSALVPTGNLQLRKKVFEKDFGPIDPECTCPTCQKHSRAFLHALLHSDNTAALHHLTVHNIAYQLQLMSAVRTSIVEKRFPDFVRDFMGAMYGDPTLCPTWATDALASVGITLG
Chain of His-hQTRT1 (catalytic subunit of human TGT);StrepII-hQTRT2 (noncatalytic subunit) (Q9H974 whole entry, chain 2 of 2): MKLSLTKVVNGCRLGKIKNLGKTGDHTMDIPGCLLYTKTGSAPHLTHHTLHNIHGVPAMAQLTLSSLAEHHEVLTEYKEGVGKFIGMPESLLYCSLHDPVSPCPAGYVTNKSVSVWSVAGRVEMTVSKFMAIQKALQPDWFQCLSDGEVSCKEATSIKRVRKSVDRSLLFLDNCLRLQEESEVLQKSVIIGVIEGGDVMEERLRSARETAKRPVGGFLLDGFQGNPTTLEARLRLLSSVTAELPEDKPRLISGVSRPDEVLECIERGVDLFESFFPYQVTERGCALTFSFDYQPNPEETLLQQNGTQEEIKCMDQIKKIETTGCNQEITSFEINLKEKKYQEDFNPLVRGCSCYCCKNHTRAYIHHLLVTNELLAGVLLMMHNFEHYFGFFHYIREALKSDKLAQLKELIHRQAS

Regarding CCCCGCCUGUCACGCGGGA (structured_RNA) [Aspartyl anticodon stem loop (AspSL)], the binding result is “binds”.
Turning to ACUGGCCUCCUAAGCCAGG (structured_RNA) [Arginyl anticodon stem loop (ArgSL)], the binding result is “no binding”.
